Assay results reported in publication PMC3143262 (Journal of molecular biology, 2011).
Positions count from the first letter of the chain named. Names may count otherwise.

B1: CD147 Ig0 wild-type (domain or fragment, human, UniProt P35613 22-138, looked up)
chain: AAGFVQAPLSQQRWVGGSVELHCEAVGSPVPEIQWWFEGQGPNDTCSQLWDGARLDRVHIHATYHQHAASTISIDTLVEEDTGTYECRASNDPDRNHLTRAPRVKWVRAQAVVLVLE
B2: CD147 Ig0 K126A (domain or fragment, human, UniProt P35613 22-138, looked up)
chain: B1 chain with K105A
B3: CD147 Ig0 C67M (domain or fragment, human, UniProt P35613 22-138, looked up)
chain: B1 chain with C46M
modifications: Selenomethionine labeled for the crystal structure

Target: the molecule itself
Assay: SEC

Stoichiometry N, 2:
B1
B2
B3
